PMC8154523

Assays:
Assay in all cases: NMR
Conditions in all cases: 30 °C
[1] = test system: Asp32 (position 32, […])
[2] = test system: Glu73 (position 73, […])
[3] = test system: Asp77 (position 77, […])
[4] = test system: Glu43 (position 43, […])
[5] = test system: Asp46 (position 46, […])
[6] = test system: Glu28 (position 28, […])
[7] = 50 mM NaCl (plus 20 mM phosphate and 5 mM polyanionic sclx8), D-fructose-bound RSL in the presence of 5 mM sclx8 (binding has mM affinity and is pH dependent)
[8] = 50 mM NaCl (plus 20 mM phosphate), D-fructose-bound RSL, no sclx8 (0 mM)

Ralstonia solanacearum lectin (RSL), fucose-binding lectin (Ralstonia solanacearum)
pKa [1, 7]: 3.7±0.01 | pKa [1, 8]: 1.7±0.02 | pKa [2, 7]: < 2.0 | pKa [2, 8]: < 2.0 | pKa [3, 7]: < 2.0 | pKa [3, 8]: < 2.0 | pKa [4, 7]: 6.2±0.01 | pKa [4, 8]: 5.9±0.01 | pKa [5, 7]: 4.2±0.01 | pKa [5, 8]: 3.5±0.01 | pKa [6, 7]: < 2.0 | pKa [6, 8]: < 2.0
